Assay results reported in patent publication US20260250410A1 (SICHUAN HUIYU PHARMACEUTICAL, published 2026).

B1: 1CP-117-MMAE (antibody, human IgG1, kappa, V domains shown)
VH: QVQLVQSGSELKKPGASVKVSCKASGYTLTDFSMHWVRQAPGQGLEWMGWINTETGAPTYADDFKGRFVLSLDTSVSTAYLQISSLKAEDTAVYYCSRGRDYDPHFDYWGQGTLVTVSS
VL: EIVLTQSPATLSLSPGERATLSCRASQSISDFLHWYQQKPGQSPRLLIKYASQSISGIPARFSGSGSGSDFTLTISSVEPEDFAVYYCQSAHSFPYTFGQGTKLEIKR
modifications: vc-MMAE coupled after reduction, sites not stated; DAR 4.8
B2: 1CP-152-MMAE (antibody, human IgG1, kappa, V domains shown)
VH: EVQLVESGGGLVQPGRSLRLSCTTSGLTFTHYHMSWVRQAPGKGLEWVAIIRNKAYGYTTDYSASVRGRFTISRDDSKSILYLQMNSLKTEDTAVYYCVREGGYGYDGTFAYWGQGTLVTVSS
VL: DIQMTQSPSSLSASVGDRVTITCRASESVDNYGISFMNWFQQKPGQAPKLLIYAASNQGSGVPSRFSGSGSGTDFTLTISSMQPEDFATYYCQQSKEVPRTFGGGTKVEIKR
modifications: vc-MMAE coupled after reduction, sites not stated; DAR 4.5
B3: SB8 (antibody, V domains shown)
VH: QVTLKESGPGILKPSQTLSLTCSFSGFSLSTSGVGVGWIRQPSGKGLEWLAHIWWDDEKYYNPSLKSHFTISKDTSRNQVFLKITSVDTADTATYYCVKEGDGMDYWGQGTSVTVSS
VL: QAVVTQESALTTSPGETVTLTCRSSTGAVATSNYANWVQEKPDHLFTGLIGGTNNRVPGVPARFSGSLIGDKAALTITGAQTEDEAIYFCALWYSNHWVFGGGTKLTVL
notes: single B cell antibody, expressed in CHO
B4: SB9 (antibody, V domains shown)
VH: DVKLVESGGGLVKPGGSLKLSCAASGFTFSSFTMSWVRQTPEKRLEWVATISSSGSYTYYPDSVKGRFTISRDNAKNTLYLQMSSLKSEDTAMYYCTSPDYYGRSYGYFDYWGQGTTLTVSS
VL: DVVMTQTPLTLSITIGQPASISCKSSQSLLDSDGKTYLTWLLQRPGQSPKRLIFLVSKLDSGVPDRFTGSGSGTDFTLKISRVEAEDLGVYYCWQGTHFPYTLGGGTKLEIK
notes: as for B3
B5: SB5 (antibody, V domains shown)
VH: QVQLRESGPGLVAPSQSLSITCTVSGFSLTDFGVNWVRQPPGKGLEWLGIIWANGRIEYNSALKSRLSISKDNSRSQVFLKLNSLQTDDTARYYCARDHDYDVEAMDYWGQGTSVTVSA
VL: QIVLTQSPAIKSASPGEKVTMTCSASSSVIYMHWYQQKSGSSPKRWIYDTSKLASGVPVRFSGSGSGTSYSLTISTMEAEDAATYYCQQWSSYPPTFGGGTKVEIK
notes: as for B3

Tests used:
[1] = target: T1, human CDCP1 on tumor cells (human, UniProt Q9H5V8 30-836); test: cell-based or functional assay
T1 sequence (looked up): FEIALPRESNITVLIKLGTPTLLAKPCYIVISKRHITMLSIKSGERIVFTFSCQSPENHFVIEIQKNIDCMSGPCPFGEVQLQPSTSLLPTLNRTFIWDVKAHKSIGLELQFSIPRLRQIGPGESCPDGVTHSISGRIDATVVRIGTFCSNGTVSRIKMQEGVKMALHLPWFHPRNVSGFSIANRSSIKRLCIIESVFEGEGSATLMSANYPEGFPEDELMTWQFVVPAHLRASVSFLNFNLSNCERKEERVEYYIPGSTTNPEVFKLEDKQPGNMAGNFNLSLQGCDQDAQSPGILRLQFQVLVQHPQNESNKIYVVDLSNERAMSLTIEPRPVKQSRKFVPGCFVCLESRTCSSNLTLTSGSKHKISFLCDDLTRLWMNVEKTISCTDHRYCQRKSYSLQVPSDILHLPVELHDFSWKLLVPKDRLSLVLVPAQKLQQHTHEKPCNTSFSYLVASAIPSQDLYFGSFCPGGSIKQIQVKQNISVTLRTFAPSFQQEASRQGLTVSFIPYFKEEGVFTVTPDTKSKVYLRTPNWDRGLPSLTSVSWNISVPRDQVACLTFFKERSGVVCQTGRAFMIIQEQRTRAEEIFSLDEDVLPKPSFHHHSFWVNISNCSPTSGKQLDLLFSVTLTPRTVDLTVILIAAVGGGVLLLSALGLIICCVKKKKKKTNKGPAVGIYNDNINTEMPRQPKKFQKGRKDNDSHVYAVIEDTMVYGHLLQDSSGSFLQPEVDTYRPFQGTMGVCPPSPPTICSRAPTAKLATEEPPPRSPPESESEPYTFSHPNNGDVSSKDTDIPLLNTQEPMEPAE

[2] = target: T1, human CDCP1 on tumor cells; test: cell-based or functional assay; remark: listed apart in the source
[3] = target: T1, human CDCP1 on tumor cells; test: flow cytometry, MDA-MB-231 cells, 1.5 µg/ml
Description: Flow cytometry was used to detect the binding capacity of antibody to tumor cells. MDA-MB-231 cells were subjected to digestion with 5 mM EDTA, centrifuged, and counted, the cells were resuspended with FACS buffer (PBS+2% FBS). Cell density was adjusted to 4×10⁵/ml, 50 μL (2×10⁴ tumor cells) were added per well, an Fc blocker (Human TruStain FcX™, Biolegend, 422302) was added for blocking at room temperature for 10 mins, then the antibody to be tested was added at a final concentration of 1.5 μg/ml. The mixture was incubated out at 4° C. for 30 mins, centrifuged and washed, a secondary antibody (PE anti-human IgG Fc Antibody, Biolegend, 410708) was added for incubation, and then detection was performed using a flow cytometer. Geo-MFI was used as the preliminary criterion for determining antibody-cell binding.

HuCDCP1-B = target: T2, HuCDCP1-B (human, UniProt Q9H5V8 343-667); test: ELISA, coated antigen
T2 construct: range 343-667; expressed in HEK-293T, purified by Fc/his tag; also called human CDCP1-B; membrane-proximal region of CDCP1; not shown: Fc or his tag
T2 sequence (looked up): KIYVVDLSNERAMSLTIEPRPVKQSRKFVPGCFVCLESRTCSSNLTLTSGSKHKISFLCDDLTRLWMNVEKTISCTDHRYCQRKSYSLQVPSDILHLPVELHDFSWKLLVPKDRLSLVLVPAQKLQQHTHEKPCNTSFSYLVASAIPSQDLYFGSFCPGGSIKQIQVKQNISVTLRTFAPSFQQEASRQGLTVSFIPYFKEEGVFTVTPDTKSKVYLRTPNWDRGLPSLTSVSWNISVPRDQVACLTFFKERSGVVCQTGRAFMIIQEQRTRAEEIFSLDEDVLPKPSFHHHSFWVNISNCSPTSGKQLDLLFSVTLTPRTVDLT
Description: (§1) The candidate antibodies obtained from Example 6 were subjected to gene cloning, constructed into an expression vector for a small amount of expression in CHO cells, and purified with an Fc affinity column (AT Protein A Diamond Plus. No. AA402312). Antibody purity was analyzed by HPLC and determined by Nanodrop. High-throughput affinity assay was carried out for a small amount of antibodies by Caterra. […] At the same time, 2 μg/ml antigen human CDCP1-C and 2 μg/ml human CDCP1-B were used for coating, and the antigen-antibody binding capacity was tested by ELISA for verification.

HuCDCP1-C = target: T3, HuCDCP1-C (human, UniProt Q9H5V8 30-667); test: ELISA, coated antigen
T3 construct: range 30-667; expressed in HEK-293T, purified by Fc/his tag; also called human CDCP1-C; full-length extracellular domain of human CDCP1; not shown: Fc or his tag
T3 sequence (looked up): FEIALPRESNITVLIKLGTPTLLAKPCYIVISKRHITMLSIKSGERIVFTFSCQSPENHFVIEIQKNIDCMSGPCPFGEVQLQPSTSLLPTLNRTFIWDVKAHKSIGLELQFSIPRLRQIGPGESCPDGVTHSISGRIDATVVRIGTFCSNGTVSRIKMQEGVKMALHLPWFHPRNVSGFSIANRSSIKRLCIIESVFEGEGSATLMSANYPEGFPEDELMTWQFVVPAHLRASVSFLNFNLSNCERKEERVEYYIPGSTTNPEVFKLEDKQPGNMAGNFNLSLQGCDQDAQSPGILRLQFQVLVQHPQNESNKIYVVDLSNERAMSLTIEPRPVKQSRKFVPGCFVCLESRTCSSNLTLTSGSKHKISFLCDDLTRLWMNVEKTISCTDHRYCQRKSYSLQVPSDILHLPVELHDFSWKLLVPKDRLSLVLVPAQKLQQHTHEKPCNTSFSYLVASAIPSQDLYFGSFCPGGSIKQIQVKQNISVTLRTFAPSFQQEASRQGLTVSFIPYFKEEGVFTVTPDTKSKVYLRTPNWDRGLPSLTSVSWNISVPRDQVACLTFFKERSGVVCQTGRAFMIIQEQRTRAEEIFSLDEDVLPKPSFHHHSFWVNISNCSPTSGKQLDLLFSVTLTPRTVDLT
Description: as §1

huCDCP1-his = target: T4, huCDCP1-his (human, UniProt Q9H5V8 30-667, limits assumed); test: SPR (Caterra), antigen immobilized
T4 construct: also called human CDCP1 antigen; not shown: his tag
T4 sequence (looked up): T3 sequence (looked up)
Description: as §1

Row | Binder | IC50 (nM), killing of HCC1806 cells (120 h), CellTiter-Glo [1] | IC50 (nM), killing of HCT116 cells (120 h), CellTiter-Glo [2] | binding result [3] | also measured
1 | B1 | 0.894 nM | 1.51 nM |  | 
2 | B2 | 0.734 nM | 1.27 nM |  | 
3 | B3 |  |  | binds | 
4 | B4 |  |  | binds | 
5 | B5 |  |  |  | EC50 (HuCDCP1-B): 0.208 nM; EC50 (HuCDCP1-C): 0.413 nM; Kd (huCDCP1-his): 0.835 nM
